Where two headings read alike, the source gives them in different places. *1 amine or outer side, *2 acyl side, *3 side chain or, on linkers, in order; H or OH if unused. Bridges are numbered along the chain shown (N, C = ends). Primed or numbered codes have the meaning given here. [ ]: non-standard residue; d: D form. 4‑Aminomethyl‑phenylacetyl = 4-aminomethyl-phenylacetyl unit, its amine closes the lactam, O=C(Cc1ccc(CN[*:1])cc1)[*:2]; 1,3‑dibromopropan‑2‑one = linker (CAS 816-39-7) joining two Cys as 1,3-dithio-propan-2-one bridge -SCH2C(=O)CH2S-; 1,3‑dibromopropan‑2‑one(3) = linker giving 1,3-dithio-propan-2-one bridge -SCH2C(=O)CH2S- between Cys; 2Nal = N[C@@H](Cc1ccc2ccccc2c1)C(=O)O; AEF = NCCOc1ccc(C[C@H](N)C(=O)O)cc1; 3Pal = N[C@@H](Cc1cccnc1)C(=O)O; αMeL = CC(C)C[C@](C)(N)C(=O)O; CH2COCH2 = O=C(C[*:1])C[*:2]; Dab = NCC[C@H](N)C(=O)O
Tests used:
[1] = target: T1, human IL-23R endogenously expressed on DB cells (CRL-2289) (human, UniProt Q5VWK5 24-629); assay: cell-based or functional assay
T1 sequence (looked up): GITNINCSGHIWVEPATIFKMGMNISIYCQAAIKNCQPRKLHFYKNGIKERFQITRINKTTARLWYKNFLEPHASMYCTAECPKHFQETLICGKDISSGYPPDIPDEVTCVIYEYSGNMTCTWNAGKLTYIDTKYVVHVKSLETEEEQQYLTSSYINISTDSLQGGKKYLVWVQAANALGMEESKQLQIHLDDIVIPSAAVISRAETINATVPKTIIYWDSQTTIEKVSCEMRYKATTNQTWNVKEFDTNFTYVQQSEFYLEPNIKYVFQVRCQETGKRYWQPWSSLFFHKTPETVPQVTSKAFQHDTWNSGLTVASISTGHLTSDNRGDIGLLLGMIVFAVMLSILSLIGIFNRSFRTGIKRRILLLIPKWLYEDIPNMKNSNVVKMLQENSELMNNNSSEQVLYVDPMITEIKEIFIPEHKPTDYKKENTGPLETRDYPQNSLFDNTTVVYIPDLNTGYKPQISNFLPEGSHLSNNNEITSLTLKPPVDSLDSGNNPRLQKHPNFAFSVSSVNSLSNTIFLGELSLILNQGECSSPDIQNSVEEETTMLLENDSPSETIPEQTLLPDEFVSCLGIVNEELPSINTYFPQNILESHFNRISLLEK

[2] = target: T2, Nluc-IL23R fusion protein (human, UniProt Q5VWK5 22-629); assay: BRET displacement of TAMRA-labelled peptide, Nluc-IL23R membranes
T2 construct: range 22-629; Stably expressed in HEK293 cells; also called hIL-23R; human IL-23R fused to a Nanoluc luciferase enzyme; not shown: Nanoluc luciferase (Promega N1371 plasmid) at the N-terminus
T2 sequence (looked up): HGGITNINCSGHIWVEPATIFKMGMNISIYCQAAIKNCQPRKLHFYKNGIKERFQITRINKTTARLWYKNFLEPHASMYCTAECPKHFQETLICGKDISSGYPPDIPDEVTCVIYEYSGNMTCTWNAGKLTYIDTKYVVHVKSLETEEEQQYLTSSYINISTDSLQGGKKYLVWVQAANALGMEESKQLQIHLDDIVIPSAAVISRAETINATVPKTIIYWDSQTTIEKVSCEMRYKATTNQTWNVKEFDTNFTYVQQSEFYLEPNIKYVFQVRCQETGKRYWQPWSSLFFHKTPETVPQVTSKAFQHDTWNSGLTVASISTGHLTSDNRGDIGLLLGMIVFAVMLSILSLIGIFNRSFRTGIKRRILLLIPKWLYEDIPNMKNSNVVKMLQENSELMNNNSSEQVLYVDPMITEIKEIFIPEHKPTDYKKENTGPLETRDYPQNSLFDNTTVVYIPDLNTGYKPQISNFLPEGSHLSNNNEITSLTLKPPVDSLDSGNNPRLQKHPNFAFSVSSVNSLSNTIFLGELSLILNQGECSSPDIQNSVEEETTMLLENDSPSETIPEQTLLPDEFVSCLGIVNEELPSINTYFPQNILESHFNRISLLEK

[3] = target: T1, human IL-23R endogenously expressed on …; assay: cell-based or functional assay; remark: listed apart in the source
[4] = target: T2, Nluc-IL23R fusion protein; assay: BRET displacement of TAMRA-labelled peptide, Nluc-IL23R membranes; remark: listed apart in the source
Procedure: (§1) The plate was sealed with light impermeable plate seals, and incubated on a orbital shaker 400 rpm for 2 hours at room temperature. To determine the BRET ratio, the plate seal was removed and 25 μL of the Nanoluc substrate (Promega N1572) diluted 1:500 was added to each well and incubated for 1-2 minutes on an orbital shaker at 400 rpm. […] The BRET ratio was calculated as the fluorescence from the TAMRA/nanoluc bioluminescence. The IC₅₀ for each compound was determined by computer-aided curve fitting using a 4-parameter logistic (4PL) non-linear model.

[5] = target: T2, Nluc-IL23R fusion protein; assay: as above; remark: listed apart in the source
[6] = target: T1, human IL-23R endogenously expressed on …; assay: cell-based or functional assay; remark: listed apart in the source
[7] = target: T1, human IL-23R endogenously expressed on …; assay: cell-based or functional assay; remark: listed apart in the source
[8] = target: T1, human IL-23R endogenously expressed on …; assay: cell-based or functional assay; remark: listed apart in the source
[9] = target: T2, Nluc-IL23R fusion protein; assay: BRET displacement of TAMRA-labelled peptide, Nluc-IL23R membranes; remark: listed apart in the source
Procedure: as §1

[10] = target: T2, Nluc-IL23R fusion protein; assay: as above; remark: listed apart in the source
Procedure: as §1

[11] = target: T2, Nluc-IL23R fusion protein; assay: as above; remark: listed apart in the source
Procedure: as §1

[12] = target: T1, human IL-23R endogenously expressed on …; assay: cell-based or functional assay; remark: listed apart in the source
[13] = target: T1, human IL-23R endogenously expressed on …; assay: cell-based or functional assay; remark: listed apart in the source
[14] = target: T1, human IL-23R endogenously expressed on …; assay: cell-based or functional assay; remark: listed apart in the source
[15] = target: T2, Nluc-IL23R fusion protein; assay: BRET displacement of TAMRA-labelled peptide, Nluc-IL23R membranes; remark: listed apart in the source
Procedure: as §1

[16] = target: T2, Nluc-IL23R fusion protein; assay: as above; remark: listed apart in the source
Procedure: as §1

[17] = target: T1, human IL-23R endogenously expressed on …; assay: cell-based or functional assay; remark: listed apart in the source
[18] = target: T2, Nluc-IL23R fusion protein; assay: BRET displacement of TAMRA-labelled peptide, Nluc-IL23R membranes; remark: listed apart in the source
Procedure: as §1

## Ac-KTCWQC[AEF][2Nal][αMeL]E[Dab][3Pal]-NH2 (lactam 1-10; linker 3-6 via 1,3‑dibromopropan‑2‑one(3)) [Compound 155]
[1]
  IC50 (pSTAT3): 0.0305 nM
[2]
  Ki: 0.00805 nM

## Ac-DESCWQCW[2Nal]LKR-NH2 (lactam 2-11; linker 4-7 via CH2COCH2) [Compound 17]
[3]
  IC50 (pSTAT3): 366 nM
[1]
  IC50 (pSTAT3): 366 nM
[4]
  Ki: 70.7 nM
[5]
  Ki: 70.7 nM

## Ac-KSCWQCW[2Nal]LER-NH2 (lactam 1-10; linker 3-6 via CH2COCH2) [Compound 18]
[6]
  IC50 (pSTAT3): 17.6 nM
[7]
  IC50 (pSTAT3): 17.6 nM
[8]
  IC50 (pSTAT3): 17.6 nM
[1]
  IC50 (pSTAT3): 17.6 nM
[9]
  Ki: 2.85 nM
[10]
  Ki: 2.85 nM
[11]
  Ki: 2.85 nM
[5]
  Ki: 2.85 nM

B1: Compound 29 (peptide)
peptide: Ac-KSCWQC[AEF][2Nal]LER-NH2
modifications: lactam 1-10; linker 3-6 via CH2COCH2
SMILES: CC(=O)N[C@H]1CCCCNC(=O)CC[C@@H](C(=O)N[C@@H](CCCNC(=N)N)C(N)=O)NC(=O)[C@H](CC(C)C)NC(=O)[C@H](Cc2ccc3ccccc3c2)NC(=O)[C@H](Cc2ccc(OCCN)cc2)NC(=O)[C@@H]2CSCC(=O)CSC[C@H](NC(=O)[C@H](CO)NC1=O)C(=O)N[C@@H](Cc1c[nH]c3ccccc13)C(=O)N[C@@H](CCC(N)=O)C(=O)N2
[8]
  IC50 (pSTAT3): 19.7 nM
[1]
  IC50 (pSTAT3): 19.7 nM

B2: Compound 20 (peptide)
peptide: Ac-DKSCWQCW[2Nal]LER-NH2
modifications: lactam 2-11; bridge 4-7; not fully specified (bridges); printed as [Ac]-DK(1c)SC(2d)WQC(2d)W[2-Nal]LE(1c)R-[NH2]
[12]
  IC50 (pSTAT3): 79.2 nM
[1]
  IC50 (pSTAT3): 79.2 nM

## [4‑Aminomethyl‑phenylacetyl]SEWQ[Dab][AEF][2Nal][αMeL]E-{NH‑3‑aminopropanoyl} (lactam N-10, 3-6) [Compound 137]
[1]
  IC50 (pSTAT3): 24.1 nM
[2]
  Ki: 0.518 nM

B3: Compound 21 (peptide)
peptide: Ac-DKSCWQCW[2Nal]LER-NH2
modifications: lactam 2-11; bridge 4-7; not fully specified (bridges); printed as [Ac]-DK(1c)SC(2e)WQC(2e)W[2-Nal]LE(1c)R-[NH2]
[12]
  IC50 (pSTAT3): > 1 µM
[1]
  IC50 (pSTAT3): > 1 µM

B4: Compound 16 (peptide)
peptide: DESCXQCWWLKR
HELM: PEPTIDE1{[ac].D.E.S.C.[Cc1cccc2c(C[C@H](N[*:1])C(=O)[*:2])c[nH]c12].Q.C.W.W.L.K.R.[am]}|CHEM1{[O=C(C[*:1])C[*:2]]}$PEPTIDE1,PEPTIDE1,3:R3-12:R3|PEPTIDE1,CHEM1,5:R3-1:R1|PEPTIDE1,CHEM1,8:R3-1:R2$$$V2.0
SMILES: CC(=O)N[C@@H](CC(=O)O)C(=O)N[C@H]1CCC(=O)NCCCC[C@@H](C(=O)N[C@@H](CCCNC(=N)N)C(N)=O)NC(=O)[C@H](CC(C)C)NC(=O)[C@H](Cc2c[nH]c3ccccc23)NC(=O)[C@H](Cc2c[nH]c3ccccc23)NC(=O)[C@@H]2CSCC(=O)CSC[C@H](NC(=O)[C@H](CO)NC1=O)C(=O)N[C@@H](Cc1c[nH]c3c(C)cccc13)C(=O)N[C@@H](CCC(N)=O)C(=O)N2
[3]
  IC50 (pSTAT3): 461 nM
[1]
  IC50 (pSTAT3): 461 nM

## Ac-DKSCWQCWWLER-NH2 (lactam 2-11; linker 4-7 via 1,3‑dibromopropan‑2‑one) [Compound 7]
[13]
  IC50 (pSTAT3): 159 nM
[1]
  IC50 (pSTAT3): 159 nM

## Ac-ESCWQCWWLKR-NH2 (lactam 1-10; linker 3-6 via 1,3‑dibromopropan‑2‑one) [Compound 10]
[14]
  IC50 (pSTAT3): 617 nM
[1]
  IC50 (pSTAT3): 617 nM

## H-DESCWQCWWLKR-NH2 (lactam 2-11; linker 4-7 via 1,3‑dibromopropan‑2‑one) [Compound 4]
[13]
  IC50 (pSTAT3): > 1 µM
[14]
  IC50 (pSTAT3): > 1 µM
[3]
  IC50 (pSTAT3): > 1 µM
[1]
  IC50 (pSTAT3): 847 nM
[15]
  Ki: 143 nM
[16]
  Ki: 143 nM
[4]
  Ki: 143 nM
[5]
  Ki: 143 nM

B5: I4 (isomer 3) (peptide)
peptide: H-ECWLCYYRNCNCM-NH2
modifications: linker 5-10, 2-12 via 1,3‑dibromopropan‑2‑one
notes: Peptide of Heinis et al., 2020, synthesised and tested by the inventors
[17]
  IC50 (pSTAT3): > 1 µM
[1]
  IC50 (pSTAT3): > 1 µM
[18]
  Ki: > 1000 nM

B6: Compound 19 (peptide)
peptide: DKSCWQCWXLER
HELM: PEPTIDE1{[ac].D.K.S.C.W.Q.C.W.[O=C([C@H](Cc1ccc2ccccc2c1)N[*:1])[*:2]].L.E.R.[am]}|CHEM1{[O=C(C[*:1])C[*:2]]}$PEPTIDE1,PEPTIDE1,3:R3-12:R3|PEPTIDE1,CHEM1,5:R3-1:R1|PEPTIDE1,CHEM1,8:R3-1:R2$$$V2.0
SMILES: CC(=O)N[C@@H](CC(=O)O)C(=O)N[C@H]1CCCCNC(=O)CC[C@@H](C(=O)N[C@@H](CCCNC(=N)N)C(N)=O)NC(=O)[C@H](CC(C)C)NC(=O)[C@H](Cc2ccc3ccccc3c2)NC(=O)[C@H](Cc2c[nH]c3ccccc23)NC(=O)[C@@H]2CSCC(=O)CSC[C@H](NC(=O)[C@H](CO)NC1=O)C(=O)N[C@@H](Cc1c[nH]c3ccccc13)C(=O)N[C@@H](CCC(N)=O)C(=O)N2
[6]
  IC50 (pSTAT3): 32.3 nM
[12]
  IC50 (pSTAT3): 32.3 nM
[1]
  IC50 (pSTAT3): 33.2 nM
[5]
  Ki: 6.33 nM

B7: Compound 22 (peptide)
peptide: Ac-DKSCWQCW[2Nal]LER-NH2
modifications: lactam 2-11; bridge 4-7; not fully specified (bridges); printed as [Ac]-DK(1c)SC(2f)WQC(2f)W[2-Nal]LE(1c)R-[NH2]
[12]
  IC50 (pSTAT3): > 1 µM
[1]
  IC50 (pSTAT3): > 1 µM

From patent publication US20250154198A1, “PEPTIDE INHIBITORS OF INTERLEUKIN-23 RECEPTOR” (Zealand Pharma A/S, priority 2021, published 2025)
